Source: patent US20220177587A1, “METHODS AND USES OF VARIANT CD80 FUSION PROTEINS AND RELATED CONSTRUCTS” (Alpine Immune Sciences, Inc., priority 2018, published 2022)
Where a chain is given by its changes, count along the chain named. Numbers in names are those of the source.

B1: CD80 (A91G/I118V/T120S/T130A) ECD-Fc: variant full CD80 ECD fused to effector human IgG1 Fc (SEQ ID NO:1527) (protein)
chain: VIHVTKEVKEVATLSCGHNVSVEELAQTRIYWQKEKKMVLTMMSGDMNIWPEYKNRTIFDITNNLSIVILALRPSDEGTYECVVLKYEKDGFKREHLAEVTLSVKADFPTPSISDFEVPSSNIRRIICSASGGFPEPHLSWLENGEELNAINTTVSQDPETELYAVSSKLDFNMTTNHSFMCLIKYGHLRVNQTFNWNTTKQEHFPDN
B2: E35G/K54E/A71D/L72P: variant CD80 IgV-Fc, IgV SEQ ID NO:219 (protein)
chain: VIHVTKEVKEVATLSCGHNVSVEELAQTRIYWQKGKKMVLTMMSGDMNIWPEYENRTIFDITNNLSIVILDPRPSDEGTYECVVLKYEKDAFKREHLAEVTLSVKAD
B3: A71D/L72V/E95K: variant CD80 IgV-Fc, IgV SEQ ID NO:192 (protein)
chain: B2 chain with G35E, E54K, P72V, E95K
B4: E23G/A26S/E35D/T62N/A71D/L72V/L85M: variant CD80 IgV-Fc, IgV SEQ ID NO:216 (protein)
chain: B2 chain with E23G, A26S, G35D, E54K, T62N, P72V, L85M
B5: E35D/D46V/L85Q: variant CD80 IgV-Fc, IgV SEQ ID NO:203 (protein)
chain: B2 chain with G35D, D46V, E54K, D71A, P72L, L85Q
B6: E35D/M47L: variant CD80 IgV-Fc, IgV SEQ ID NO:208 (protein)
chain: B2 chain with G35D, M47L, E54K, D71A, P72L

Columns and labels:
[1] = molecular target: huPD-L1 (Homo sapiens, UniProt Q9NZQ7); test: Flow binding to CHO cells stably expressing PD-L1; design: huCTLA4 and huPD-L1, full-length mammalian surface expression constructs were generated; expressed in transfected cells; host or cells: CHO cells, lentiviral transduction, sorted to >98% purity; conditions: for PD-L1 MFI at 33.3 nM: Table E19, CHO cells stably expressing PD-L1
Procedure, shortened: (§1)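 Fusion proteins bound to CHO cells stably expressing CTLA4 or PD-L1, or to Jurkat/IL2 reporter cells with endogenous CD28, for 45 min on ice after blocking in PBS/1% BSA. Detection with PE anti-human Fc by flow cytometry; PE MFI per cell type and binding EC50 determined.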

[2] = molecular target: T1, CD28 (Homo sapiens, UniProt P10747); test: Jurkat/IL2 + K562/OKT3 (no PD-L1) reporter assay of CD80 ECD-Fc (effector); format: cell-based; design: host or cells: Jurkat cells expressing an IL-2-luciferase reporter; conditions: aAPC without PD-L1
Description: The bioactivity of the generated molecules also was assessed using a Jurkat report assay as described in Examples 9 to assess CD28 costimulation of the molecules.

[3] = molecular target: huCTLA4 (Homo sapiens, UniProt P16410); test: Flow binding to CHO cells stably expressing CTLA4; design: huCTLA4 and huPD-L1, full-length mammalian surface expression constructs were generated; expressed in transfected cells; host or cells: CHO cells, lentiviral transduction, sorted to >98% purity; conditions: for CTLA4 MFI at 33.3 nM: Table E19, CHO cells stably expressing CTLA4
Procedure, shortened: as §1

[4] = molecular target: T1, CD28; test: Flow binding to Jurkat/IL2 reporter cells (CD28); design: host or cells: Jurkat cells expressing an IL-2-luciferase reporter; conditions: for CD28 MFI at 33.3 nM: Table E19, Jurkats (CD28)
Procedure, shortened: as §1

[5] = molecular target: T1, CD28; test: CD28 costimulation via Fc receptor or PD-L1 dependent cross-linking (Jurkat/IL2 + K562/OKT3 +/- PD-L1); format: cell-based; design: host or cells: Jurkat cells expressing an IL-2-luciferase reporter; conditions: K562/0KT3 aAPC, luciferase signal
Description: In a further experiment, CD28 costimulation was assessed for variant CD80-IgV-Fc fusion proteins, where the Fc was an IgG1 Fc (e.g. SEQ ID NO:1517) capable of mediating effector activity via binding to Fc receptors (FcR). The experiment was carried out as described in part A above, except CD32-expressing K562 cells stably transduced with OKT3 (K562/OKT3) or OKT3 and PD-L1 (K562/OKT3/PD-L1) were used instead of the CHO/OKT3 and CHO/OKT3/PD-L1 cells, and the results are depicted in Table E9.

[6] = test system: Pan T cells; test: Primary T cell stimulation assay with K562/OKT3 +/- PD-L1 (IL-2, IFN-gamma, proliferation); format: cell-based, human; conditions: 1, 10, 100 nM; 72 hr
Description: IFN-gamma, IL-2 and proliferation were determined after 72 hr. incubation.

[7] = molecular target: T1, CD28; test: Jurkat/IL2 + CHO/OKT3 +/- PD-L1 reporter assay: PD-L1-dependent CD28 costimulation; format: cell-based; design: host or cells: Jurkat cells expressing an IL-2-luciferase reporter; conditions: for PD-L1-Dependent CD28 Costimulation, +PD-L1, 0.6 nM / PD-L1-Dependent CD28 Costimulation, +PD-L1, 50 nM: CHO/OKT3/PD-L1 aAPC; for PD-L1-Dependent CD28 Costimulation, +PD-L1, 0.6 nM / PD-L1-Dependent CD28 Costimulation, +PD-L1, 50 nM / PD-L1-Dependent CD28 Costimulation, No PD-L1, 50 nM / PD-L1-Dependent CD28 Costimulation, No PD-L1, […]: luciferase signal; for PD-L1-Dependent CD28 Costimulation, No PD-L1, 50 nM / PD-L1-Dependent CD28 Costimulation, No PD-L1, […]: CHO/OKT3 aAPC
Procedure, shortened: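 Jurkat reporter cells (100,000/well) preincubated 15 min at room temperature with test protein, then cocultured 5 h at 37 °C with CHO aAPCs bearing anti-CD3 scFv (OKT3) with or without PD-L1. Luciferase luminescence (RLU) read after lysis-substrate addition.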

[8] = molecular target: T1, CD28; test: Jurkat/IL2 reporter assay: blockade of CD28 costimulation (plate-bound anti-CD3/CD86-Fc); format: cell-based; design: host or cells: Jurkat cells expressing an IL-2-luciferase reporter; conditions: Table E5; protein diluted to 40 nM before mixing with cells; 5 hours
Procedure, shortened: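 Jurkat cells carrying an IL-2–luciferase reporter were preincubated 15 min at room temperature with CD80-Fc fusion molecules, then added to plates coated overnight with anti-CD3 and CD86-Fc. After 5 h at 37 °C, luciferase luminescence was read with Bio-Glo.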

[9] = test system: MC38 hPD-L1 tumor cells; test: MC38 hPD-L1 tumor model in C57BL/6 mice; format: in vivo, mouse
Description: Mouse MC38 tumor cells were stably transfected with human PD-L1 (MC38 hPD-L1) and implanted subcutaneously into C57BU6 mice. […] Tumor volume was tracked over time.
70 female C57CL/6 mice, containing similar tumor volumes of approximately 50-51 mm^3, following implantation of MC38 hPD-L1 tumor cells, were staged and divided into 5 treatment groups containing 14 mice each. […] Tumor volumes were measured on days 7, 10, and 12. On day 13, 5 animals were sacrificed for analysis as described in the sections below. Tumor measurements resumed for the remaining 9 mice for each group on days 17, 20 and 27. On days 26, 28, and 31, the animals in Group 1 (Fc isotype control) received an intratumoral injection of 100 μg E35D/M47L CD80-IgV-Fc.
95 female C57BU6 mice were implanted with MC38 hPD-L1 tumor cells. The tumors were staged on Day 7, and 77 mice with similar tumor volumes of approximately 60 mm^3 were divided into 7 treatment groups containing 11 mice each.
On day 49, tumor-free mice, from Groups 3, 4, 6, and 7, and 2 naïve C57CL/6 mice were re-challenged with an additional injection of hPD-L1 MC38 cells. Tumor volumes were measured on days 56, 59, and 63. The results are depicted in FIG. 13. […] At day 59, 8/8 mice from Group 3, 1/2 mice from Group 4, 1/1 mouse from Group 6, and 2/2 mice from Group 7 were tumor-free, and by day 63, all mice in Group 3, Group 4, Group 6, and Group 7 were tumor-free.
75 animals were staged into 3 treatment groups 7 days after implantation with hPD-L1 MC38 tumor cells. […] Tumor volumes were measured every 3-4 days, from Day 11 until Day 35. 3 days after the 1st dose, 2nd dose and 3rd dose, 4 mice from each group were sacrificed for tumor and LN analyses, leaving 13 mice for tumor volume measurements throughout the study period.

[10] = re-challenged on day 49 with hPD-L1 MC38 cells

huPD-L1, sequence (Q9NZQ7 19-290): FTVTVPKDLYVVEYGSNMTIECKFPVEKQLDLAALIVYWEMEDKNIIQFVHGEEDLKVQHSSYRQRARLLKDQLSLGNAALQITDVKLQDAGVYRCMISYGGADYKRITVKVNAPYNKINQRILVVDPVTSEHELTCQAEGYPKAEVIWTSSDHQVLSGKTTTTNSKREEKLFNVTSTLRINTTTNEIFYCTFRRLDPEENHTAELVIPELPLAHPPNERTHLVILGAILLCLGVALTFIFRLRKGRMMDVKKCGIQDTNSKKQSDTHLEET
huCTLA4, sequence (P16410 36-223): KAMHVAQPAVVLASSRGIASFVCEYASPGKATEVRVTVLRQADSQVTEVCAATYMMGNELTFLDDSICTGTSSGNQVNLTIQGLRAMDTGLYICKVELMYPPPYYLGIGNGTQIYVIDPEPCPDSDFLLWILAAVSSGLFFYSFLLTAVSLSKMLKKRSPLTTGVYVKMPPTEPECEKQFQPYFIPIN

Molecule	CD28 costimulation, FcR Dependent Cross-Linking (No PD-L1), 0.6 nM [5]	CD28 costimulation, FcR Dependent Cross-Linking (No PD-L1), 50 nM [5]	PD-L1-Dependent CD28 Costimulation, +PD-L1, 0.6 nM [7]	PD-L1-Dependent CD28 Costimulation, +PD-L1, 50 nM [7]	PD-L1-Dependent CD28 Costimulation, No PD-L1, 50 nM [7]	PD-L1-Dependent CD28 Costimulation, No PD-L1, […] [7]	Average Relative Luminescence Units [8]	PD-L1 MFI at 33.3 nM [1]	CTLA4 MFI at 33.3 nM [3]	CD28 MFI at 33.3 nM [4]	other results
B1											CHO/PD-L1 MFI at 66.7 nM ([1]; 66.7 nM): 107; Relative Luminescence at 98 pM ([2]; 98 pM): 1098 RLU; Relative Luminescence at 391 pM ([2]; 391 pM): 1119 RLU; Relative Luminescence at 1563 pM ([2]; 1563 pM): 1288 RLU; Relative Luminescence at 6250 pM ([2]; 6250 pM): 1761 RLU; Relative Luminescence at 25000 pM ([2]; 25000 pM): 2209 RLU; Relative Luminescence at 100000 pM ([2]; 100000 pM): 2750 RLU; CHO/CTLA4 MFI at 66.7 nM ([3]; 66.7 nM): 24801; EC50 ([3]; flow binding): 4.3 nM; Jurkat/CD28 MFI at 66.7 nM ([4]; 66.7 nM): 720; EC50 ([4]; flow binding, read-out: Jurkat/CD28 EC50): > 200 nM
B2	1337	1510	529	476	440	417					CD28 costimulation and IL-2 production [6]: did not generate significant costimulation and IL-2 production
B3	1821	7109	524	755	644	466	2939 Relative Luminescence Units				
B4	2022	7855	524	695	606	566	2067 Relative Luminescence Units				
B5	1880	7015	611	2224	720	511	3230 Relative Luminescence Units	4039	48005	196	Relative Luciferase Units (RLU), CD80 Conc 5.0 nM ([7]; Table E21, Jurkat/IL2 + CHO/OKT3/PD-L1, CD80 Conc 5.0 nM): 410 RLU
B6	2119	8685					1110 Relative Luminescence Units	7529	48010	411	mice with no detectable tumors (tumor-free) upon completion of the study ([9]; 100 μg on days 7, 9 and 11, 11 mice per group): 1 mice; tumor growth / tumor volume ([9]; i.p. dosing, compared to Fc control or anti-PD-L1): dose-dependent decrease in tumor volumes; tumor-free mice after re-challenge, day 59 [9, 10]: 1/1; tumor-free mice after re-challenge, day 63 [9, 10]: tumor-free
